The test addresses Biotinylated tubulin (bovine brain tubulin labelled with NHS-LC-biotin), held on a streptavidin layer (bovine) (UniProt Q6B856). Briefly: dual polarization interferometry.

In the case of “Tubulin (alpha/beta heterodimer), purified from bovine brain (from UniProt Q6B856 1-445) (complex)”, the rate of thickness increase after the inflection point (microtubule growth) was determined as 0.436 nm/min.

(Values after paper PMC2725191.)
